This note sets out measurements from patent EP4775675A1.

In test [1] the target is human BDCA-2 on cells (Jurkat-hBDCA-2 cells; human pDCs; human PBMCs) (human) (UniProt Q8WTT0). Briefly: flow cytometry on Jurkat-hBDCA-2 cells. For orientation: Flow cytometry measures light scatter and fluorescence of single cells or particles in a stream.
In test [2] the target is cynomolgus monkey BDCA-2 on cells (Jurkat-cynoBDCA-2 cells; cynomolgus monkey pDCs) (cynomolgus monkey). Briefly: flow cytometry on Jurkat-cynoBDCA-2 cells.
Chain of cynomolgus monkey BDCA-2 on cells (Jurkat-cynoBDCA-2 cells; cynomolgus monkey pDCs) (cynomolgus monkey) (chain, as listed by the source): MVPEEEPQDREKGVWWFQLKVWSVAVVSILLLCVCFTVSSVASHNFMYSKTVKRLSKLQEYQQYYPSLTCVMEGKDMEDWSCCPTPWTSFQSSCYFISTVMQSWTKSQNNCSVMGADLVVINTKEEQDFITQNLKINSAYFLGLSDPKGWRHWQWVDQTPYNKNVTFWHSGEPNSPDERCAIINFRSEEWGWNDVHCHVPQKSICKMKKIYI

Chain of human BDCA-2 on cells (Jurkat-hBDCA-2 cells; human pDCs; human PBMCs) (human) (Q8WTT0 whole entry): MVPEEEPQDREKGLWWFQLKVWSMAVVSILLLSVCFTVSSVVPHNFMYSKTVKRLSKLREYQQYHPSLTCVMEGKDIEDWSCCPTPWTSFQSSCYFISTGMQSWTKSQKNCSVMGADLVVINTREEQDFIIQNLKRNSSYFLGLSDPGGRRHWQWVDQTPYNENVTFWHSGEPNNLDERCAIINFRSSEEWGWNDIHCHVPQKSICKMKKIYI

In the case of Isotype control (antibody), the MFI is 17.5 in test [1] and 67.3 in test [2].
